In patent US20080220049A1 (published 2008):
Changes are numbered by the printed parent chain.

B1: E2 (designed binder)
chain: EVVAATPTSLLISWRHPHFPTRYYRITYGETGGNSPVQEFTVPLQPPTATISGLKPGVDYTITGYAVTDGPNDRLLNIPISINYRT
notes: 10Fn3 variant, residues 1-8 deleted
B2: D9 (designed binder)
chain: B1 chain with K55R, D69E, G70E, P71R, D73G, L75V, N77F, I78T
notes: Del 1-8; assay tags not included
B3: F5 (designed binder)
chain: B1 chain with K55R, D69V, G70E, P71R, N72D, D73G, L75E
notes: as for B2
B4: F6 (designed binder)
chain: B1 chain with D69V, G70E, P71Q, D73G, L75V, N77M, I78T, I82T
notes: Del 1-8; assay tags not included; Framework 4 printed as ISTNYRT
B5: 2′Del F6 PR4 (designed binder)
chain: B1 chain with D69L, P71W, R74H, L75E, N77Y
B6: 3′E10 PR4 (designed binder)
chain: B1 chain with D69A, P71H, N72K, R74Q, L75E, N77L, I78T
B7: wild type fibronectin-based scaffold protein (tenth type III domain of human fibronectin) (other)
chain: VSDVPRDLEVVAATPTSLLISWDAPAVTVRYYRITYGETGGNSPVQEFTVPGSKSTATISGLKPGVDYTITGYAVTGRGDSPASSKPISINYRT
notes: E. coli produced with His6 tag; also called WT; 10Fn3

Assays:
[1] = molecular target: T1, mouse vascular endothelial growth factor receptor-2 Fc chimera (Flk-1-Fc) (mouse, UniProt P35918 20-762); assay: radioactive equilibrium binding assay, % of input at 1 nM Flk-1-Fc
T1 construct: Purchased from R&D Systems; also called mouse VEGF-R2; not shown: Fc portion of the purchased chimera is not described
T1 sequence (P35918 20-762, change not shown): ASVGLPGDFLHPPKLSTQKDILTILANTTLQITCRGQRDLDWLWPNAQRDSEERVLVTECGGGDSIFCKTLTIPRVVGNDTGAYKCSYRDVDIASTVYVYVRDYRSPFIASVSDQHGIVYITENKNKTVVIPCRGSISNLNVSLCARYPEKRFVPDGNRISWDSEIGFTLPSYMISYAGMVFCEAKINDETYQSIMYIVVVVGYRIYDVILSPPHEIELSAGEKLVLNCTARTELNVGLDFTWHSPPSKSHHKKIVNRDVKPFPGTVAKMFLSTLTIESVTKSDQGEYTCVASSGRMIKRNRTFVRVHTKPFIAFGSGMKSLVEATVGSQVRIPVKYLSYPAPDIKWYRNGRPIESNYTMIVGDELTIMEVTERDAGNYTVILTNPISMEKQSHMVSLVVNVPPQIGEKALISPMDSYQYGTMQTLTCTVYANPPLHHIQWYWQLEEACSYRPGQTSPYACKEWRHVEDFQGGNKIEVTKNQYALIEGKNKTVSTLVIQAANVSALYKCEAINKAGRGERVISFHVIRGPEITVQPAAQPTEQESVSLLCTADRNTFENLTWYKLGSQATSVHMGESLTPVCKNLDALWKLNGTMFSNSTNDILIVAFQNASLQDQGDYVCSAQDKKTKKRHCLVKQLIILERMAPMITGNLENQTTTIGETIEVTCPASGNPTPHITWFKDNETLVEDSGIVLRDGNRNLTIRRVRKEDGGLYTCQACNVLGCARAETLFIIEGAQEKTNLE

[2] = molecular target: T2, mouse vascular endothelial growth factor receptor-2 Fc chimera (Flk-1-Fc) (mouse, UniProt P35918 20-762); assay: radioactive equilibrium binding, 1 nM Flk-1-Fc
T2 construct: Bought from R&D Systems; also called mouse VEGFR-2; Fc part of the bought chimera not given
Experimental: (§1) To prepare ³⁵S-labeled binding proteins for analysis, mRNA was prepared as described above for RNA-protein fusion production but the linker ligation step was omitted. The mRNA was expressed using rabbit reticulocyte lysate translation kit (Ambion) in the presence of ³⁵S-labeled Met at 30° C. for 1 hour. Expressed protein was purified on M2-agarose Flag beads (Sigma) as described above. This procedure produced the encoded protein without the nucleic acid tail. In a direct binding assay, VEGF-R2-Fc fusions in concentrations ranging from 0 to 200 nM were added to a constant concentration of the purified protein (0.2 or 0.5 nM) and incubated at 30° C. for 1 hour in buffer B. The receptor-binder complexes were captured using Protein A magnetic beads for another 10 minutes at room temperature using a Kingfisher™. The beads were washed with six reaction volumes of buffer B. The protein was eluted from the beads with 100 μL of 0.1 M KOH. 50 μL of the reaction mixture and elution were dried onto a LumaPlate-96 (Packard) and the amount of ³⁵S on the plate was measured using a TopCount NXT instrument (Packard). The amount of fibronectin-based scaffold protein bound to the target was estimated as a percent of radioactivity eluted from Protein A magnetic beads compare to radioactivity in the reaction mixture. Nonspecific binding of fibronectin-based scaffold proteins to the beads was determined by measuring binding in the absence of KDR-Fc and represented less than 1-2% of the input. Specific binding was obtained through subtraction of nonspecific binding from total binding. Data was analyzed using the GraphPad Prizm software (GraphPad Software, Inc, San Diego, Calif.), fitted using a one site, non-linear binding equation.
T2 sequence (P35918 20-762, change not shown): as above

[3] = molecular target: T3, human vascular endothelial growth factor receptor-2 Fc chimera (KDR-Fc) (human, UniProt P35968 20-764); assay: radioactive equilibrium binding, 1 nM KDR-Fc
T3 construct: range 1-764; Bought from R&D Systems; limits 1-764 are stated for the selection target; also called human VEGFR-2; not shown: human IgG1 Fc
Experimental: as §1
T3 sequence (P35968 20-764 limits assumed, change not shown, form in doubt): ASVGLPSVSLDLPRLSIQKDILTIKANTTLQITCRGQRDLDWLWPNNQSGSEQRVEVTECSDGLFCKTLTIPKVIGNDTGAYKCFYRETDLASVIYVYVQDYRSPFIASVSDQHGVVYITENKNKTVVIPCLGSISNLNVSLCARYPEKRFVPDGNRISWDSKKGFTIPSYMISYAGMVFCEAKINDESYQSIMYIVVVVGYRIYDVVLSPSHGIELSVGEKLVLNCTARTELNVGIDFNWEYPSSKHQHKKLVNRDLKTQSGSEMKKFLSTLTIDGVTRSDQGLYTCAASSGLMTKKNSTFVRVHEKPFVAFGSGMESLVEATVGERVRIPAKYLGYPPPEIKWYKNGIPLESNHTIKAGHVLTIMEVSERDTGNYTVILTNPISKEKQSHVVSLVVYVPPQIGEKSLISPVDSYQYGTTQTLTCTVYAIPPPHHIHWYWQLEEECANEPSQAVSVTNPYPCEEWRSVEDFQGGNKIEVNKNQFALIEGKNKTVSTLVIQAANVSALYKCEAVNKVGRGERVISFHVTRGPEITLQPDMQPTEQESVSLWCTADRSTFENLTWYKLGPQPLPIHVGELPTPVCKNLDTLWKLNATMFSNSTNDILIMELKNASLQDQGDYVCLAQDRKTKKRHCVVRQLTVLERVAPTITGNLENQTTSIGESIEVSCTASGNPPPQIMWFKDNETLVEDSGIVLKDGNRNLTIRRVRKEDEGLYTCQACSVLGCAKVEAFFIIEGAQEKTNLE

[4] = molecular target: T4, human vascular endothelial growth factor receptor-2 Fc chimera (KDR-Fc) (human, UniProt P35968 20-764); assay: radioactive equilibrium binding, 1 nM KDR-Fc
T4 construct: range 1-764; bought from R&D Systems; stated range 1-764 counts from the first residue of the precursor; also called human VEGF-R2-Fc; not shown: human IgG1 Fc
Experimental: as §1
T4 sequence (P35968 20-764 limits assumed, change not shown, form in doubt): as above

[5] = molecular target: T5, full-length human KDR on cells (human, UniProt P35968 20-1356); assay: flow cytometry on CHO KDR cells
T5 construct: whole, on cells; also called CHO KDR; CHO-KDR
T5 sequence (P35968 20-1356): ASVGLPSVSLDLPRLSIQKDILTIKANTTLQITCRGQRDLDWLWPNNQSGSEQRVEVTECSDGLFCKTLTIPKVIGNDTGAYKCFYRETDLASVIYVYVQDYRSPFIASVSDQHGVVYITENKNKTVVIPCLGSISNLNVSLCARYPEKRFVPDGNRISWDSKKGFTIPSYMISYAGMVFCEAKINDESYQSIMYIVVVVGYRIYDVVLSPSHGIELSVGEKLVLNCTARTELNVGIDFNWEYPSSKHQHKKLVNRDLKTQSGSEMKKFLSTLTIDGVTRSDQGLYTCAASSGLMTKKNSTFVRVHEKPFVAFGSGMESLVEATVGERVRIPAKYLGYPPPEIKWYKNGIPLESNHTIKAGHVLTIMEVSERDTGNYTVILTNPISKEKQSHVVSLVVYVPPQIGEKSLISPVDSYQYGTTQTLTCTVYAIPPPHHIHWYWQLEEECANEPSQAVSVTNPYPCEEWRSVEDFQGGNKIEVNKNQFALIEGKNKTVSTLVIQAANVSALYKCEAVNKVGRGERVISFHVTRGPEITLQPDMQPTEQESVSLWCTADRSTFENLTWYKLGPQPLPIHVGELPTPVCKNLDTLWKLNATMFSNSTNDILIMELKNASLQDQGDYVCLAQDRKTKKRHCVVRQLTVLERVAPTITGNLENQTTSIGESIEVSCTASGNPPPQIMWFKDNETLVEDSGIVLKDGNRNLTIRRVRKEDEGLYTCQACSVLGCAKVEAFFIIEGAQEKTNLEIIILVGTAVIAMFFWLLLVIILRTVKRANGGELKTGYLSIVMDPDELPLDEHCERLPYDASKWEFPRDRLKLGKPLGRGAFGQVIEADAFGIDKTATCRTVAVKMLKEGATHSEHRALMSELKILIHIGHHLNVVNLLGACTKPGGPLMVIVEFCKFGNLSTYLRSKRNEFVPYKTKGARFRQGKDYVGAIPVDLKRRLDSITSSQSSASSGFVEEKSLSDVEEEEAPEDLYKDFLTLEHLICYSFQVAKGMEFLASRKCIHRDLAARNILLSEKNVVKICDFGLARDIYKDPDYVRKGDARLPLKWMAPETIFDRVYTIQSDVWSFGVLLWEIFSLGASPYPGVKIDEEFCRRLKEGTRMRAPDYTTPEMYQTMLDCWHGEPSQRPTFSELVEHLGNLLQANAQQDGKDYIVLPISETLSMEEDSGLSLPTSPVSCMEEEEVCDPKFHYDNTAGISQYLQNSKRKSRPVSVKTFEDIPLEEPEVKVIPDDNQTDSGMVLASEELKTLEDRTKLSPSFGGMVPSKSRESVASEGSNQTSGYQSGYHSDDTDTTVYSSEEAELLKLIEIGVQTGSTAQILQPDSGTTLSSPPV
Experimental: Binding of fibronectin-based scaffold protein to cell-surface KDR and Flk-1 was analyzed simultaneously on VEGF-R2-expressing and control cells by flow cytometry. CHO-pcDNA3 cells (control) were released from their dishes with trypsin-EDTA, washed in Dulbecco's PBS without calcium and magnesium (D-PBS⁻; Invitrogen), and stained for 30 minutes at 37° C. with 1.5 μM CMTMR (5-(and-6)-(((4-chloromethyl)benzoyl)amino)-tetramethylrhodamine) (Molecular Probes). The cells were washed in D-PBS⁻ and incubated for a further 30 minutes at 37° C., and then resuspended in blocking buffer (D-PBS⁻/10% fetal bovine serum) on ice. CHO-KDR or CHO-Flk cells were treated identically except that CMTMR was omitted. […] For cells treated with an anti-KDR mouse monoclonal antibody (Accurate Chemical, Westbury, N.Y.) or an anti-flk-1 goat polyclonal antibody (R&D Systems), the anti-His₆ step was omitted, and antibody binding was detected with the species-appropriate Alexa Fluor 488 conjugated secondary antibody (Molecular Probes). Following staining, cells were resuspended in 200 μl/well D-PBS⁻/1% FBS/1 μg/ml 7-aminoactinomycin D (7-AAD; Molecular Probes) and analyzed by flow cytometry on a FACSCalibur (Becton Dickinson, San Jose, Calif.) equipped with a […] laser. […]

Row | Binder | Binding to 1 nM Flk-1, % [2] | Binding to 1 nM KDR, % [3] | other results
1 | B1 |  |  | Binding to 1 nM FLK, % [1]: 10%
2 | B2 | 40% | 31% | 
3 | B3 | 8% | 12% | 
4 | B4 | 2% | 37% | 
5 | B5 |  |  | Binding to 1 nM KDR, % [4]: 22%
6 | B6 |  |  | Binding to 1 nM KDR, % [4]: 21%
7 | B7 |  |  | binding result [5]: no binding
